In patent publication US20220185898A1 (Alector, published 2022):
Residue numbers refer to the chain shown, from its start.

B1: S-14 (antibody, V domains shown)
VH: QVQLVQSGAEVKKPGASVKVSCKASGYTFTSYYMSWVRQAPGQGLEWMGIINPSGGSTSYAQKFQGRVTMTRDTSTSTVYMELSSLRSEDTAVYYCARDPSGIAAAGPASRYYYGMDVWGQGTTVTVSS
VL: DIQMTQSPSSLSASVGDRVTITCRASQSISSYLNWYQQKPGKAPKLLIYGASSLQSGVPSRFSGSGSGTDFTLTISSLQPEDFATYYCQQHYVGPFTFGGGTKVEIK
notes: IgG
B2: S-2-1 Fab (Fab, V domains shown)
VH: QVQLVQSGAEVKKPGASVKVSCKASGYTFGAYYMHWVRQAPGQGLEWMGWINPNSGFTRYAQKFQGRVTMTRDTSISTAYMELSRLRSDDTAVYYCARGKRSSGWYEGYGMDVWGQGTTVTVSS
VL: B1 VL with G50A, H91S, Y92D, G94S, F96I
notes: Fab by papain digestion of the IgG

Experiments:
[1] = target: T1, mouse Sortilin expressed on 293 / HEK293T cells (mouse, UniProt Q6PHU5 74-825); assay: FACS, 293 cells;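 note: antibodies at 10 µg/ml bound to cells for 1 h on ice, detected with PE-labelled anti-human secondary antibody by flow cytometry, reported as mean fluorescence intensity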
T1 construct: full-length recombinant mouse Sortilin; also called mSort; msSort
Experimental: (§1) Cells were harvested, plated at 10⁵/ml in a 96 well plate, washed, and incubated in 100 μl PBS containing 10 μg/ml Mab and 2% FBS for 1 hour in ice. Cells were then washed twice and incubated in 100 μl PBS+2% FBS containing 5 μg/ml PE-conjugated anti-human secondary antibody for 30 minutes in ice. Cells were washed twice in cold PBS and data was acquired on a BD FACS Canto. Data analysis and calculation of MFI values was performed with FlowJo (TreeStar) software version 10.0.7.

[2] = target: T2, human Sortilin expressed on 293 / HEK293T cells (human, UniProt Q99523 78-830); assay: FACS, 293 cells;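 note: antibodies at 10 µg/ml bound to cells for 1 h on ice, detected with PE-labelled anti-human secondary antibody by flow cytometry, reported as mean fluorescence intensity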
T2 construct: full-length recombinant human Sortilin; also called hSort; SORT1
Experimental: as §1

[3] = target: T3, biotinylated human Sortilin monomer (human, UniProt Q99523 78-755, limits assumed, biotinylated (Sulfo-NHS-biotin)); assay: ForteBio, avidity, biotinylated human Sortilin on sensor
T3 construct: monomer cut from the Fc fusion with IdeS; used unbiotinylated in solution in some formats; also called Bt-hSort; b-H Sort

[4] = target: T4, human Sortilin Fc fusion protein (human, UniProt Q99523 78-755); assay: ForteBio, avid;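 note: whole IgG captured on AHQ sensors, then contacted with Sortilin Fc fusion antigen at 100 nM, followed by an off-rate phase in buffer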
T4 construct: whole entry named; also called hSort-Fc
Experimental: (§2) The affinity for the Sortilin antibodies was determined by measuring their KD by ForteBio. […] Briefly, ForteBio affinity measurements were performed by loading IgGs on-line onto AHQ sensors. Sensors were equilibrated off-line in assay buffer for 30 min and then monitored on-line for 60 seconds for baseline establishment. For avid binding measurement, sensors with loaded IgGs were exposed to 100 nM antigen (human or mouse Sortilin Fc fusion) for 3, afterwards they were transferred to assay buffer for 3 min for off-rate measurement.
(§3) The binding affinity of each anti-Sortilin antibody was determined by measuring their KD by ForteBio or MSD-SET at room temperature. […] Briefly, ForteBio affinity measurements were performed by loading IgGs on-line onto AHQ sensors. Sensors were equilibrated off-line in assay buffer for 30 min and then monitored on-line for 60 seconds for baseline establishment. Sensors with loaded IgGs were exposed to 100 nM antigen for 5 minutes, then transferred to assay buffer for 5 min for off-rate measurement. Kinetics were analyzed using the 1:1 binding model.

[5] = target: T5, mouse Sortilin Fc fusion protein (mouse; human, UniProt Q6PHU5 74-754); assay: ForteBio, avid;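 note: whole IgG captured on AHQ sensors, then contacted with Sortilin Fc fusion antigen at 100 nM, followed by an off-rate phase in buffer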
T5 construct: whole entry named; also called mSort-Fc
Experimental: as §2, §3

[6] = target: T3, biotinylated human Sortilin monomer; assay: MSD-SET, Fab; MSD, Fab, monovalent biotinylated human Sortilin
Experimental: (§4) Antibodies (20 nM in PBS) were coated onto standard bind MSD-ECL plates overnight at 4° C. or at room temperature for 30 min. Plates were then blocked with 1% BSA for 30 min with shaking at 700 rpm, followed by three washes with wash buffer (PB SF+0.05% Tween 20). SET samples were applied and incubated on the plates for 150 s with shaking at 700 rpm followed by one wash. Antigen captured on a plate was detected with 250 ng/ml sulfotag-labeled streptavidin in PBSF by incubation on the plate for 3 min. The plates were washed three times with wash buffer and then read on the MSD Sector Imager 2400 instrument using 1× Read Buffer T with surfactant. The percent free antigen was plotted as a function of titrated antibody in Prism and fit to a quadratic equation to extract the KD. To improve throughput, liquid handling robots were used throughout MSD-SET experiments, including SET sample preparation.

[7] = target: T6, biotinylated mouse Sortilin monomer (mouse, UniProt Q6PHU5 74-754, limits assumed, biotinylated); assay: MSD-SET, Fab
T6 construct: also called Bt-msSort
Experimental: as §4

[8] = target: T3, biotinylated human Sortilin monomer; assay: ForteBio, Fab
Experimental: The affinity of the anti-Sortilin antibodies was determined by measuring their KD by ForteBio and MSD. […] Briefly, ForteBio affinity measurements were performed by loading immunoglobulins (IgGs) on-line onto AHQ sensors. Sensors were equilibrated off-line in assay buffer for 30 min and then monitored on-line for 60 seconds for baseline establishment. For avid binding measurement, sensors with loaded IgGs were exposed to 100 nM antigen (human or mouse Sortilin Fc fusion) for 3 min, afterwards they were transferred to assay buffer for 3 min for off-rate measurement. […] Monovalent binding measurements were obtained by loading human or mouse Sortilin Fc fusion antigens to AHQ sensor and followed by exposure to −100 nM Sortilin antibody Fab. […] Kinetics data were fit using a 1:1 binding model in the data analysis software provided by ForteBio.

| Binder | MFI [1] | MFI [2] | Kd [3] | Kd [4] | Kd [5] | Kd [6] | Kd [7] | Kd [8] |
| --- | --- | --- | --- | --- | --- | --- | --- | --- |
| B1 | 16500 | 8010 | 800 pM | 5740 pM | 2740 pM | – | – | – |
| B2 | – | – | – | – | – | 29 pM | 730 pM | 614 pM |
